Blank lines part the entries; values can stand above or below the substance they belong to.
How the values were obtained:
[1] = molecular target: mEGFP–Daple FL ΔCT (mouse Daple lacking the CT domain) (mouse); test: single-molecule photobleaching steps and spot intensities
[2] = molecular target: mEGFP–Daple FL (full-length mouse Daple, mEGFP(A206K)-Daple-Flag) (mouse) (UniProt Q6VGS5); test: as above
[3] = molecular target: Microtubules polymerised from tubulin protein (T240; Cytoskeleton), paclitaxel-stabilised (UniProt P02550); test: co-sedimentation
[4] = molecular target: mEGFP–Daple NT (N-terminal domain of mouse Daple) (mouse); test: single-molecule photobleaching steps and spot intensities

stoichiometry N [1]: 2
Substance: mEGFP–Daple FL ΔCT (mouse Daple lacking the CT domain) (domain or fragment)

stoichiometry N [2]: 2
Substance: mEGFP–Daple FL (full-length mouse Daple, mEGFP(A206K)-Daple-Flag), Q6VGS5 1-2009

Kd [3]: 1460 nM
Substance: mEGFP–Daple FL (full-length mouse Daple, mEGFP(A206K)-Daple-Flag) (from UniProt Q6VGS5 1-2009) (natural protein)

stoichiometry N [4]: 2
Substance: mEGFP–Daple NT (N-terminal domain of mouse Daple) (domain or fragment)

From article PMC8094116
